B1: Guanyl-specific ribonuclease Sa, P05798 (parent)
chain: DVSGTVCLSALPPEATDTLNLIASDGPFPYSQDGVVFQNRESVLPTQSYGYYHEYTVITPGARTRGTRRIITGEATQEDYYTGDHYATFSLIDQTC

Variants of: B1
Conditions: Kitasatospora aureofaciens, pH 7, CD, MOPS 30 mM, structure 1RGG, whole UniProt chain shown

| Variant | ddG of mutation (higher = less stable) (25 °C, GdnHCl) [kcal/mol] | denaturant m value (25 °C, GdnHCl) [kcal/mol/M] | denaturant midpoint (higher = more stable) (25 °C, GdnHCl) [M] | unfolding free energy (25 °C, GdnHCl) [kcal/mol] | ddG of mutation (higher = less stable) (25 °C, Urea) [kcal/mol] | denaturant m value (25 °C, Urea) [kcal/mol/M] | denaturant midpoint (higher = more stable) (25 °C, Urea) [M] | unfolding free energy (25 °C, Urea) [kcal/mol] | ddG of mutation (higher = less stable) (60 °C, Thermal) [kcal/mol] | Tm (Thermal) [°C] | change of melting temperature, mutant - wild type (higher = more stable) (Thermal) [°C] | unfolding enthalpy (van 't Hoff) (Thermal) [kcal/mol] | heat capacity change of unfolding (60 °C, Thermal) [kcal/mol/K] | heat capacity change of unfolding (Thermal) [kcal/mol/K] |
| --- | --- | --- | --- | --- | --- | --- | --- | --- | --- | --- | --- | --- | --- | --- |
| DVSGTVCLSALPPEATDTLNLIASKGPFPYSQDGVVFQNRESVLPTQSYGYYHEYTVITPGARTRGTRRIITGKATQEDYYTGDHYATFSLIDQTC [D25K E74K] | 0.2 | 2.61 | 2.7 | 7.1 | -0.8 | 1.02 | 6.51 | 6.6 | -0.8 | 51.5 | 2.2 | 92 | – | – |
| DVSGTVCLSALPPEATDTLNLIASKGPFPYPQDGVVFQNREGVLPTQPYGYYHEYTVITPGARTRGTRRIITGKAPGEDYYTGDHYATFSLIDQTC [D25K E74K S31P S42G S48P T76P Q77G] | -3.9 | 2.52 | 4.44 | 11.2 | – | – | – | – | -5.3 | 66.6 | 17.3 | 105 | 1.68 | 1.68 |
| DVSGTVCLSALPPEATDTLNLIASKGPFPYPQDGVVFQNREGVLPTQPYGYYHEYTVITPGARTRGTRRIITGKAPGEAYYTGDHYATFSLIDQTC [D25K E74K S31P S42G S48P T76P Q77G D79A] | -4.9 | 2.4 | 5.05 | 12.1 | – | – | – | – | -2.2 | 75.3 | 8.7 | 102 | 1.15 | 1.15 |
| DVSGTVCLSALPPEATDTLNLIASKGPFPYPQDGVVFQNREGVLPTQPYGYYHEYTVITPGARTRGTRRIITGKAPGEFYYTGDHYATFSLIDQTC [D25K E74K S31P S42G S48P T76P Q77G D79F] | -6.3 | 2.51 | 5.4 | 13.6 | – | – | – | – | -7.7 | – | – | – | 1.07 | – |
| DVSGTVCLSALPPEATDTLNLIASKGPFPYPQDGVVFQNREGVLPTQPYGYYHEYTVITPGARTRGTRRIITGKAPGEFYYTGDHYATFSLADQTC [D25K E74K S31P S42G S48P T76P Q77G D79F I92A] | -1.9 | 2.78 | 3.22 | 9.2 | – | – | – | – | 3.2 | 63.9 | -13.3 | 102 | 1.33 | 1.33 |
| DVSGTVCLSALPPEATDTLNLIASKGPFPYPQDGVVFQNREGVLPTQPYGYYHEYTVITPGARTRGTRRIITGKAPGEFYYTGDHYATFSLDDQTC [D25K E74K S31P S42G S48P T76P Q77G D79F I92D] | 2.2 | 2.73 | 2.01 | 5.5 | – | – | – | – | 7.1 | 50.2 | -26.9 | 84 | 1.41 | 1.41 |
| DVSGTVCLSALPPEATDTLNLIASKGPFPYPQDGVVFQNREGVLPTQPYGYYHEYTVITPGARTRGTRRIITGKAPGEFAYTGDHYATFSLIDQTC [D25K E74K S31P S42G S48P T76P Q77G D79F Y80A] | -0.1 | 2.69 | 2.74 | 7.4 | – | – | – | – | 4.8 | 58 | -19.2 | 87 | 1.29 | 1.29 |
| DVSGTVCLSALPPEATDTLNLIASKGPFPYPQDGVVFQNREGVLPTQPYGYYHEYTVITPGARTRGTRRIITGKAPGEDYYTGDHYATFSLDDQTC [D25K E74K S31P S42G S48P T76P Q77G I92D] | 5.1 | 2.67 | 0.83 | 2.2 | – | – | – | – | 9.6 | 34 | -32.6 | 73 | 1.41 | 1.41 |
| DVSGTVCLSALPPEATDTLNLIASKGPFPYPQDGVVFQNREGVLPTQPYGYYHEYTVITPGARTRGTRRDITGKAPGEFYYTGDHYATFSLIDQTC [D25K E74K S31P S42G S48P T76P Q77G D79F I70D] | – | – | – | – | – | – | – | – | 9.5 | 41.5 | -35.6 | 78 | 1.08 | 1.08 |

From FireProtDB (doi:10.1002/pro.381)
